The source of these data is patent US20070128190A1 (GLENMARK PHARMACEUTICALS S A, published 2007).

Experiment [1] addresses T1, human platelet α2β1 integrin (immobilized on microtiter plates) (human, UniProt P17301 30-1181; P05556 21-798).
T1 construct: plates custom-coated with human platelet α2β1 by GTI Inc; also called immobilized α2β1 integrin; α2β1-coated plates
The experiment can be described thus: competition with Eu-TMC-2206 on human platelet α2β1-coated plate. On the procedure:
Each labeled antibody mixture was applied to a separate PD-10 column (GE Biosciences, Piscataway, N.J.) pre-equilibrated with Running Buffer (50 mM Tris, pH 7.4 and 138 mM NaCl). Fractions (0.5 mL) were collected and assayed for total protein (Bradford reagent; Bio-Rad Laboratories, Hercules, Calif.) using a SpectraMax 384 absorbance plate reader and for europium after 1:10.000 dilution in DELFIA Enhancement Solution (Perkin-Elmer) by time-resolved fluorescence (TRF) using a Victor2 multi-label plate reader (Perkin Elmer). The fractions that were positive for both protein and Eu label were pooled and applied to new PD-10 columns and samples collected and assayed for total protein and for europium content by TRF calibrated against a europium standard solution (Perkin-Elmer) to calculate the fluor: protein ratio. […] After incubating the sealed plates for 1 hr at 37° C. to allow binding to reach equilibrium, 2 μL samples were transferred from each well into a fresh well containing DELFIA Enhancement Solution (100 μL/well; Perkin-Elmer) for the measurement of free (unbound) label. Enhancement Solution (100 μL/well) was added to the emptied wells for the measurement of bound label. The plate was shaken (Titer Plate Shaker speed setting of 5 for 5 minutes at room temperature) and time-resolved fluorescent (TRF) intensities were read using a Victor2 multi-label plate reader (Perkin-Elmer Wallac, Boston, Mas.).

Experiment [2] concerns the target T1, human platelet α2β1 integrin …. The experiment is described as follows: equilibrium binding of Eu-TMC-2206 to human platelet α2β1-coated plate, Scatchard. As to the method: Wells in a 96 well microtiter plate were coated with platelet α2β1-integrin (custom-coated with human platelet α2β1 by GTI Inc., Wis.) and then blocked with nonfat milk. […] After concentration in prewashed MicroSep concentrators (30-kDa cutoff; Pall Life Sciences at 9500 rpm (7000×g) in a JA-20 rotor (Beckman Instruments, Inc.) for 20 minutes at 4° C.), antibodies were adjusted to 4.0 mg/mL with PBS containing a final concentration of 100 mM NaHCO₃, pH 9.3. The mAb/bicarbonate mixture (0.250 mL) was gently mixed into a vial containing 0.2 mg N¹-(p-isothiocyanatobenzyl)-diethylenetriamine-N¹,N²,N³N³-tetraacetic acid chelated with Eu³⁺ (Eu-N1-ITC; Perkin Elmer Life Sciences) and reacted overnight at 4° C. without stirring. Each labeled antibody mixture was applied to a separate PD-10 column (GE Biosciences, Piscataway, N.J.) pre-equilibrated with Running Buffer (50 mM Tris, pH 7.4 and 138 mM NaCl). Fractions (0.5 mL) were collected and assayed for total protein (Bradford reagent; Bio-Rad Laboratories, Hercules, Calif.) using a SpectraMax 384 absorbance plate reader and for europium after 1:10.000 dilution in DELFIA Enhancement Solution (Perkin-Elmer) by time-resolved fluorescence (TRF) using a Victor2 multi-label plate reader (Perkin Elmer). […]

Experiment [3] has as its target T2, GST-human α2 I domain fusion protein (human, UniProt P17301 153-368).
T2 construct: the reverse primer ends at ...SIEGTV; also called GST-α2 I domain; hα2I; not shown: glutathione S-transferase tag encoded by vector pGEX-2TK
T2 sequence: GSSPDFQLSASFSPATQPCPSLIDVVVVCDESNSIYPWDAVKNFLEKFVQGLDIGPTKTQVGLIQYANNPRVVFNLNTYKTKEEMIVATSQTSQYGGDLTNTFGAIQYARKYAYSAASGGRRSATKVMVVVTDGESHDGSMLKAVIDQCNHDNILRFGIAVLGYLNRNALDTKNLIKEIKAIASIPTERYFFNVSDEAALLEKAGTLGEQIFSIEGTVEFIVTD
The experiment can be described thus: ELISA, GST fusion protein on immobilized TMC-2206 (Kd apparent). On the procedure:
The fusion proteins were then expressed and purified as described above for the human GST-α2 I domain fusion protein. […] Therefore, these and the primate fusion proteins were further purified by size exclusion chromatography on a Sephadex 75 10/30 (GE-Amersham) column (primate) by FPLC on an Akta-Basic FPLC system (GE-Amersham) to yield a monomeric fraction. […] The Kᵢ assays were performed as described above in Example 2. […] Plates were sealed and coating occurred overnight at 4° C. The next morning, the plates were washed twice with TBS solution and then blocked using 200 μL of the blocking solution described above for 1 hour at room temperature with shaking. After blocking, the blocking solution was removed but the wells were not washed. Instead, a serial dilution of GST fusion protein was made, added to the wells and then incubated for 2 hours at room temperature with shaking. The wells were then aspirated and a TBS washing buffer applied for 5 minutes at room temperature. The washing step was repeated twice more before the secondary antibody was applied. The secondary antibody step consisted of Amersham's HRP-conjugated rabbit anti-GST antibody diluted 1:2000 in blocking buffer. One hundred μL of secondary antibody was added to each well and incubated at room temperature for 1.5 hours with shaking. The wells were again aspirated and washed three times with wash buffer before adding the substrate reaction mixture. One hundred μL of substrate reaction mixture (1:1 dilution of TMB kit) was then added to each well for 6 minutes. The reaction was stopped by adding 100 μL of 0.1M H₂SO₄. The reaction within the wells was then read and quantified by spectrophotometric absorption using the Molecular Dynamics plate reader and associated Softmax software, respectively. Kd values were then estimated from the EC₅₀ values using Prism software (Graphpad, Calif.).

The target in experiment [4] is human α1β1 integrin (immobilized) (human, UniProt P56199 29-1179; P05556 21-798, limits assumed). The experiment can be described thus: ELISA on immobilized human α1β1. As to the method: Human α1β1 integrin (Chemicon International) was diluted in Coating Buffer (25 mM Tris, pH 7.5, 150 mM NaCl, 1 mM MgCl₂) to a final concentration of 0.5 μg/ml. 96-well immunoplates were coated with α1β1 at 50 ng/well and incubated overnight at 4° C. The plates were washed three times with Wash Buffer (50 mM Tris, pH 7.5, 150 mM NaCl, 2 mM MgCl₂, 0.5% Tween-20) and blocked with 5% w/v/skim milk in Wash Buffer for one hour at room temperature. […] Fifty microliters/well of the diluted antibody solutions were added to the α1β1-coated plates, incubated for one hour at room temperature, and then washed three times. […] After a one-hour incubation at room temperature, the plates were washed three times, incubated in substrate solution (1 mg/ml 4-nitrophenyl phosphate, 0.1 M diethanolamine, 5 mM MgCl₂, pH 9.8) for 20 minutes, and terminated with NaOH. The absorbance (405 nm) was read using a Spectramax Plus plate reader using Softmax Pro software. […] The control anti-α1β1 antibody (FB-12) bound to α1β1 with an EC₅₀ of 0.79±0.15 nM.
Chain of human α1β1 integrin (immobilized) (P56199 29-1179 limits assumed, chain 1 of 2): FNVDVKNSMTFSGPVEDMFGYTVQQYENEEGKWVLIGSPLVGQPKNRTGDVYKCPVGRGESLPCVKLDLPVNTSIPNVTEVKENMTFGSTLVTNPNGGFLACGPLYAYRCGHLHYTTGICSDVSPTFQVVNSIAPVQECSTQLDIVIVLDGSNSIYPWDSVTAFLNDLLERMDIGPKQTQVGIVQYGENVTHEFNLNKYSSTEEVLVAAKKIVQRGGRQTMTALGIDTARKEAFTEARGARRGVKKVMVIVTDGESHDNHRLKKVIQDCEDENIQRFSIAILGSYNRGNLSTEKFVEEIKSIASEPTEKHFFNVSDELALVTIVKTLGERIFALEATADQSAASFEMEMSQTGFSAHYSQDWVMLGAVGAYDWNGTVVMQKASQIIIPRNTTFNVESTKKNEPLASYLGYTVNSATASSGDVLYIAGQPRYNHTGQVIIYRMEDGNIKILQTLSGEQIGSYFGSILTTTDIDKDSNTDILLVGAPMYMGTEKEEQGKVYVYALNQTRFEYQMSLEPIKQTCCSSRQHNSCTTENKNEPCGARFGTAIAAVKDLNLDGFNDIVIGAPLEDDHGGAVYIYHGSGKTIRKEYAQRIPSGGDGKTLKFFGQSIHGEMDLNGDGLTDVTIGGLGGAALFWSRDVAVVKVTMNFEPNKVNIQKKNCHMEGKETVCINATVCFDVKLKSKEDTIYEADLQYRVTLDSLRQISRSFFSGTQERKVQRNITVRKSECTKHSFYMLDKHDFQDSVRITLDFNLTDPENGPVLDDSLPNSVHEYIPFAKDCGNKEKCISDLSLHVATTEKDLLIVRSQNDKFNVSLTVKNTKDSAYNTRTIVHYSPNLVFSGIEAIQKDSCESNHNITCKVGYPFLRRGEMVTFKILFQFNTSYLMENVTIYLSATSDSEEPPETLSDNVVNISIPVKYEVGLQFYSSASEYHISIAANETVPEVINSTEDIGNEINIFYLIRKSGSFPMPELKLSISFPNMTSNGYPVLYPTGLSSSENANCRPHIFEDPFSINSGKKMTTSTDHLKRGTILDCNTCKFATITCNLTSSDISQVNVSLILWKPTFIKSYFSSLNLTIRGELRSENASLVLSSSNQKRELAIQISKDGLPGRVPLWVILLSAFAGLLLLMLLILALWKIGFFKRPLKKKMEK
Chain of human α1β1 integrin (immobilized) (P05556 21-798 limits assumed, chain 2 of 2): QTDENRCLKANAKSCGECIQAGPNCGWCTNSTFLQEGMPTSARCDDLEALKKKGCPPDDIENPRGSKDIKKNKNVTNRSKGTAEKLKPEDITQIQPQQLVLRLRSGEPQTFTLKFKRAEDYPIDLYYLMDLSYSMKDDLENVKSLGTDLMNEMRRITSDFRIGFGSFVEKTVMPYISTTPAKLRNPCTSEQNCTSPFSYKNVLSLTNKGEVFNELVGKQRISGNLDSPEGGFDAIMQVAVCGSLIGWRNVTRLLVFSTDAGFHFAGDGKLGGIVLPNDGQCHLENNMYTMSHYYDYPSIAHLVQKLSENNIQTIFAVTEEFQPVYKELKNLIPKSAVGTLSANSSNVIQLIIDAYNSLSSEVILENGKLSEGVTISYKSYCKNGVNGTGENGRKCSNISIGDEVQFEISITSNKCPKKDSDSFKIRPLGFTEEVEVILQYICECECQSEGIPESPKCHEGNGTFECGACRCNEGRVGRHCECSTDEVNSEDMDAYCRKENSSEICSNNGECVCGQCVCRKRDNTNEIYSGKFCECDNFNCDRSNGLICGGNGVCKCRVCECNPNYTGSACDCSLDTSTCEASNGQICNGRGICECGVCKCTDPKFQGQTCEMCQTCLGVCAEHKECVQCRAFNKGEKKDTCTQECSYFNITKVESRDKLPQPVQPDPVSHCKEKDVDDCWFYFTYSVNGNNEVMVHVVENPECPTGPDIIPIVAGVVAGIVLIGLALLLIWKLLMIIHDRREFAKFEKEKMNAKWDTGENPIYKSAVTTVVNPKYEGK
A general note: In an ELISA, binding on a coated surface is turned into a signal by an enzyme label.

T1 sequence (P17301 30-1181 E534K limits assumed, chain 1 of 2): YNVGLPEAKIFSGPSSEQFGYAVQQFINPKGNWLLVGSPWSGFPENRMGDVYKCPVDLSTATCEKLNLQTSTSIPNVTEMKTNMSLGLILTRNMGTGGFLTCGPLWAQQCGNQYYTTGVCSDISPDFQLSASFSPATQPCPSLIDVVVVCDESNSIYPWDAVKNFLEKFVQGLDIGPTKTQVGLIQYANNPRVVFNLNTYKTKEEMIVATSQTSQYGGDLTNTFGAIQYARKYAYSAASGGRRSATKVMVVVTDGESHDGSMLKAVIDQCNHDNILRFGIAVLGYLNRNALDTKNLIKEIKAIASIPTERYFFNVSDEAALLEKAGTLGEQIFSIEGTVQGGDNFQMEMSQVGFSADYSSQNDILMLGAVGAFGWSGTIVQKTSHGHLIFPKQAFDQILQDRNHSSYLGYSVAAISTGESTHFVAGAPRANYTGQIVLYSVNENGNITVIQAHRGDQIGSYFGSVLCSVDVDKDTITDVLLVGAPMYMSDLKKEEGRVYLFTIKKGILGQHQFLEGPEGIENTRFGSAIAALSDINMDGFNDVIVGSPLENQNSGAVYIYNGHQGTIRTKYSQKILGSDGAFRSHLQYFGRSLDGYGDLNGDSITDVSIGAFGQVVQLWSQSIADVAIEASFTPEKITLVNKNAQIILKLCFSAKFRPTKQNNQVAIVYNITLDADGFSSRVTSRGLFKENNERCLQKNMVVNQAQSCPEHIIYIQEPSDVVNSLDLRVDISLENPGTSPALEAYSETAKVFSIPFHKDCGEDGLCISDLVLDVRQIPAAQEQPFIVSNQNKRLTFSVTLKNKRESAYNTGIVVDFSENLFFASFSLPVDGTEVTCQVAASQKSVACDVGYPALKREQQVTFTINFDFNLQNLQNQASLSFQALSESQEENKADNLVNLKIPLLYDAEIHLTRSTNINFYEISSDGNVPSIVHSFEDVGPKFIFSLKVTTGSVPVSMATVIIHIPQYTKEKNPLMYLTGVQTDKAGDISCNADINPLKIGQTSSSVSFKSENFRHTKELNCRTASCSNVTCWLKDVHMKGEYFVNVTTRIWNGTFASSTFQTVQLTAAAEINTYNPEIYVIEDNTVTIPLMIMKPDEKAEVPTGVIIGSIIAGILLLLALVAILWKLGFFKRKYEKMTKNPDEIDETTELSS
T1 sequence (P05556 21-798 limits assumed, chain 2 of 2): as the sequence (P05556 21-798 limits assumed, chain 2 of 2) above

B1: TMC-2206 (antibody, mouse IgG1, V domains shown)
VH: QVQLKESGPGLVAPSQSLSITCTVSGFSLTNYGIHWVRQPPGKGLEWLGVIWARGFTNYNSALMSRLIITKDNSQSQVFLKMNSLQPDDSATYFCARANDGVYYAMDYWGQGTSVTVSS
VL: QFVLTQSPAFLSASPGEKVTMTCSANSSVNYIHWYQQKSGTSPKKWIYDTSKLASGVPVRFSGSGSGTSYSLTISSMETEDAATYYCQQWTTNPLTFGAGTRVELK
notes: murine IgG1/κ secreted by hybridoma BHA2.1; labelled with Eu-N1-ITC where used as tracer; also called BHA2.1
By Ki is commonly meant a dissociation constant, usually derived from enzyme kinetics or from competition with a known ligand. Low values mean higher affinity, high ones lower affinity. Regarding B1, in experiment [1], the Ki amounted to 0.22 nM. The Kd in experiment [2] is 0.374 nM; in experiment [3], 0.31 nM.

B2: Humanized TMC-2206 (hIgG4/κ VH12.0/VL10.0Q) (antibody)
heavy: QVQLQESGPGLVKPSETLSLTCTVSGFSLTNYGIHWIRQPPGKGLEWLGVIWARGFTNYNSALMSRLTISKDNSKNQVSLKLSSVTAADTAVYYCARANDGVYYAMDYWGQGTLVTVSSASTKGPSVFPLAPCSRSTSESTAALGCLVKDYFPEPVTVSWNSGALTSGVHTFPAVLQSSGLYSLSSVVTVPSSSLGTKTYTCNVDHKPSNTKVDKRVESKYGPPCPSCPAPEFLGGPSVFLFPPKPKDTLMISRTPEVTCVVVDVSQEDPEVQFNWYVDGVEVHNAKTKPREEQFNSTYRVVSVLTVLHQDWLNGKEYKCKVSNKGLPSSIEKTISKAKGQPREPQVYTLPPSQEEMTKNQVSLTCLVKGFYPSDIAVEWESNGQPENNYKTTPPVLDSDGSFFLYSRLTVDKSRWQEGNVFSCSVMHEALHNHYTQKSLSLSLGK
light: DFVMTQSPAFLSVTPGEKVTITCSAQSSVNYIHWYQQKPDQAPKKLIYDTSKLASGVPSRFSGSGSGTDYTFTISSLEAEDAATYYCQQWTTNPLTFGQGTKVEIKRTVAAPSVFIFPPSDEQLKSGTASVVCLLNNFYPREAKVQWKVDNALQSGNSQESVTEQDSKDSTYSLSSTLTLSKADYEKHKVYACEVTHQGLSSPVTKSFNRGEC
notes: labelled with Eu or Alexa-488 in some assays
As for B2, the binding result in experiment [4] is recorded as “no binding”.
